Where two headings read alike, the source gives them in different places. Where no end group is shown, it is not given here.
Columns and labels:
Assay in all cases: ITC
[1] = molecular target: T1, Vac8 (full length, residues 1 to 578) (S. cerevisiae, UniProt P39968 1-578)
T1 sequence: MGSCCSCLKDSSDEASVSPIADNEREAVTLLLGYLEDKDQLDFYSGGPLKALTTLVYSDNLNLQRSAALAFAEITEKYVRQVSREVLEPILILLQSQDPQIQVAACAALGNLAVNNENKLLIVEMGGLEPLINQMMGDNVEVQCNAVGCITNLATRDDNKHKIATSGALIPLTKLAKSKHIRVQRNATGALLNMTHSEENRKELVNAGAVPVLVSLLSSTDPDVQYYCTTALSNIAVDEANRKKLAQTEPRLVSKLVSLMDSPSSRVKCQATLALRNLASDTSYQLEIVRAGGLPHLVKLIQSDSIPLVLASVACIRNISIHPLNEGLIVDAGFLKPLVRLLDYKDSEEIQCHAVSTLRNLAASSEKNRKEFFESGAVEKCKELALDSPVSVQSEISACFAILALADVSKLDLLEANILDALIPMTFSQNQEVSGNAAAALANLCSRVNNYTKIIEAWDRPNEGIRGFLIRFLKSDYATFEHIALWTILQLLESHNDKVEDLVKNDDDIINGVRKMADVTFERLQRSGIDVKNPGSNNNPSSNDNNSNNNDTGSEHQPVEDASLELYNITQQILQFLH

[2] = molecular target: T2, preformed Vac8–tVac17 complex (ITC sample cell) (S. cerevisiae, UniProt P39968;P25591)
T2 sequence 1: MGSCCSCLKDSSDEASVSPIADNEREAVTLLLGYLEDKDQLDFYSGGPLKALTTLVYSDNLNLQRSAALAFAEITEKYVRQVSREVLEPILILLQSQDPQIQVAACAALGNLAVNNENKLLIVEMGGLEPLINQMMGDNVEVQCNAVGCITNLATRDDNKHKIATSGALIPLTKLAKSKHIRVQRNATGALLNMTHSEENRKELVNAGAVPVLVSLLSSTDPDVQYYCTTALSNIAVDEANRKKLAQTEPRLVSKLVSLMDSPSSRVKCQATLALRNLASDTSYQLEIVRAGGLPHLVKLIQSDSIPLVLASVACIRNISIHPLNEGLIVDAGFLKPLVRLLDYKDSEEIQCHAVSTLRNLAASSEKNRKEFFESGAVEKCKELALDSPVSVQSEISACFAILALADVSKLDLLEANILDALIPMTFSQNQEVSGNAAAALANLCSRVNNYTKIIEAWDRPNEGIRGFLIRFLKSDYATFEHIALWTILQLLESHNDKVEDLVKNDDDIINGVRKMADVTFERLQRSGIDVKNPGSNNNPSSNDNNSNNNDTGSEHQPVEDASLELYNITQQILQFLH
T2 sequence 2: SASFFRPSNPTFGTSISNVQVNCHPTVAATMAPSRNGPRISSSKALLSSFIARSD

[3] = molecular target: T1, Vac8 (full length, residues 1 to 578); remark: listed apart in the source

B1: Halo-tag-conjugated tVac17 (Vac17 residues 290 to 344) (domain or fragment)
chain: SASFFRPSNPTFGTSISNVQVNCHPTVAATMAPSRNGPRISSSKALLSSFIARSD
modifications: also: Halo-tag conjugate
B1 showed a Kd [1] of 2.53 µM.

B2: Nvj1^229–321 (domain or fragment)
chain: NREKDCSSSSEVESQSKCRKESTAEPDSLSRDTRTTSSLKSSTSFPISFKGSIDLKSLNQPSSLLHIQVSPTKSSNLDAQVNTEQAYSQPFRY
With B2 the Kd [2] was 10 µM and the Kd [3] was 0.71 µM.

B3: Atg13^567–695 (domain or fragment)
chain: GGNSSTSALNSRRNSLDKSSNKQGMSGLPPIFGGESTSYHHDNKIQKYNQLGVEEDDDDENDRLLNQMGNSATKFKSSISPRSIDSISSSFIKSRIPIRQPYHYSQPTTAPFQAQAKFHKPANKLIDNG
For B3, the Kd [2] was 9.02 µM.

From PMC10161063 (Proceedings of the National Academy of Sciences of the …, 2023)
